In paper PMC4946995 (Cell, 2016):

T1: Hrd1-SBP (S. cerevisiae, UniProt Q08109 1-551)
T1 sequence (looked up): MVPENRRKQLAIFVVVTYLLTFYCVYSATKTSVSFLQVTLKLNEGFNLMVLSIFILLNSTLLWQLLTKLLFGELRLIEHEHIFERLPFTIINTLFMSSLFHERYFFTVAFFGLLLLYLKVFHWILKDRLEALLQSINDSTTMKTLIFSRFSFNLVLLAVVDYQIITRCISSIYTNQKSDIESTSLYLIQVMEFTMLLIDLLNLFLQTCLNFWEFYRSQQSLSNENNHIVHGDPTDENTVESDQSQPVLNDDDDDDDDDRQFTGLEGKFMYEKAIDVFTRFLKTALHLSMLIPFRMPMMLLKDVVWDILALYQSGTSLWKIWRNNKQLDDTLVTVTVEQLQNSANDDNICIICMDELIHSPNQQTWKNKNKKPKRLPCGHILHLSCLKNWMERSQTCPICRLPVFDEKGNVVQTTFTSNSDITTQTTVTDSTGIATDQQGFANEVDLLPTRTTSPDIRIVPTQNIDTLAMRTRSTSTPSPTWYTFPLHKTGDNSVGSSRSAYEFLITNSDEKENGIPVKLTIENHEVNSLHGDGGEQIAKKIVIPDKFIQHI


Key:
Hrd1-SBP (S. cerevisiae) = Hrd1-SBP (S. cerevisiae) (UniProt Q08109); experiment: pull-down
Hrd1-SBP = biological target: T1, Hrd1-SBP; experiment: pull-down

| Kd (Hrd1-SBP (S. cerevisiae)) [nM] | Kd (Hrd1-SBP) [nM] | Molecule |
| --- | --- | --- |
| 20 |  | misfolded carboxypeptidase Y (CPY*) (from UniProt P00729 21-532) (natural protein) |
|  | ~120 | CPY-TM (other, DyLight800 at the C-terminus, attached with sortase (GGGC-coupled fluorophore)) ISLQRPLGLDKDVLLQAAEKFGLDLDLDHLLKELDSNVLDAWAQIEHLYPNQVMSLETSTKPKFPEAIKTKKDWDFVVKNDAIENYQLRVNKIKDPKILGIDPNVTQYTGYLDVEDEDKHFFFWTFESRNDPAKDPVILWLNGGPGCSSLTGLFFELGPSSIGPDLKPIGNPYSWNSNATVIFLDQPVNVGFSYSGSSGVSNTVAAGKDVYNFLELFFDQFPEYVNKGQDFHIAGESYAGHYIPVFASEILSHKDRNFNLTSVLIGNGLTDPLTQYNYYEPMACGEGGEPSVLPSEECSAMEDSLERCLGLIESCYDSQSVWSCVPATIYCNNAQLAPYQRTGRNVYDIRKDCEGGNLCYPTLQDIDDYLNQDYVKEAVGAEVDHYESCNFDINRNFLFAGDWMKPYHTAVTDLLNQDLPILVYAGDKDFICNWLGNKAWTDVLPWKYDEEFASQKVRNWTASITDEVAGEVKSYKHFTYLRVFNGGHMVPFDVPENALSMVNEWIHGGFSLNYGIFICYIAFNYIAGVFFYWLA |
|  | ~30 | CPY*-TM2 (other, DyLight800 at the C-terminus, attached with sortase (GGGC-coupled fluorophore)) ISLQRPLGLDKDVLLQAAEKFGLDLDLDHLLKELDSNVLDAWAQIEHLYPNQVMSLETSTKPKFPEAIKTKKDWDFVVKNDAIENYQLRVNKIKDPKILGIDPNVTQYTGYLDVEDEDKHFFFWTFESRNDPAKDPVILWLNGGPGCSSLTGLFFELGPSSIGPDLKPIGNPYSWNSNATVIFLDQPVNVGFSYSGSSGVSNTVAAGKDVYNFLELFFDQFPEYVNKGQDFHIARESYAGHYIPVFASEILSHKDRNFNLTSVLIGNGLTDPLTQYNYYEPMACGEGGEPSVLPSEECSAMEDSLERCLGLIESCYDSQSVWSCVPATIYCNNAQLAPYQRTGRNVYDIRKDCEGGNLCYPTLQDIDDYLNQDYVKEAVGAEVDHYESCNFDINRNFLFAGDWMKPYHTAVTDLLNQDLPILVYAGDKDFICNWLGNKAWTDVLPWKYDEEFASQKVRNWTASITDEVAGEVKSYKHFTYLRVFNGGHMVPFDVPENALSMVNEWIHGGFSLMLLFFWIPLTLVLLLCFTLSNL |
|  | ~110 | CPY-TM2 (other, DyLight800 at the C-terminus, attached with sortase (GGGC-coupled fluorophore)) ISLQRPLGLDKDVLLQAAEKFGLDLDLDHLLKELDSNVLDAWAQIEHLYPNQVMSLETSTKPKFPEAIKTKKDWDFVVKNDAIENYQLRVNKIKDPKILGIDPNVTQYTGYLDVEDEDKHFFFWTFESRNDPAKDPVILWLNGGPGCSSLTGLFFELGPSSIGPDLKPIGNPYSWNSNATVIFLDQPVNVGFSYSGSSGVSNTVAAGKDVYNFLELFFDQFPEYVNKGQDFHIAGESYAGHYIPVFASEILSHKDRNFNLTSVLIGNGLTDPLTQYNYYEPMACGEGGEPSVLPSEECSAMEDSLERCLGLIESCYDSQSVWSCVPATIYCNNAQLAPYQRTGRNVYDIRKDCEGGNLCYPTLQDIDDYLNQDYVKEAVGAEVDHYESCNFDINRNFLFAGDWMKPYHTAVTDLLNQDLPILVYAGDKDFICNWLGNKAWTDVLPWKYDEEFASQKVRNWTASITDEVAGEVKSYKHFTYLRVFNGGHMVPFDVPENALSMVNEWIHGGFSLMLLFFWIPLTLVLLLCFTLSNL |
